The source of these data is article PMC9372883 (Antibody Therapeutics, 2022).

The experiment deals with T1, P9-CCR7 (human, UniProt P32248 25-378).
T1 sequence: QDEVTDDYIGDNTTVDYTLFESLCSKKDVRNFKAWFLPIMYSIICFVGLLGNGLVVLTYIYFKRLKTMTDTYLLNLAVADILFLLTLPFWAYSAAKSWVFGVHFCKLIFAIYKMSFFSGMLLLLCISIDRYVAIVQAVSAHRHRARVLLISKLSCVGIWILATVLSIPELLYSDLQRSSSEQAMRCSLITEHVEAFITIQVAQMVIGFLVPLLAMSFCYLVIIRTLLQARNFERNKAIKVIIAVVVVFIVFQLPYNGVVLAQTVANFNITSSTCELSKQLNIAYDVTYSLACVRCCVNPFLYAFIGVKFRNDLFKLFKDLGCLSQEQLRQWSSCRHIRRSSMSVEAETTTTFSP
Nature of the experiment: ELISA.

B1: CCL21-H6-Flag (ligand)
chain: SDGGAQDCCLKYSQRKIPAKVVRSYRKQEPSLGCSIPAILFLPRKRSQAELCADPKELWVQQLMQHLDKTPSPQKPAQGCRKDRGASKTGKKGKGSKGCKRTERSQTPKGP
For B1, binding was characterised by a dissociation constant (Kd) of 11 nM.

B2: CCL19-H6-Flag (ligand)
chain: GTNDAEDCCLSVTQKPIPGYIVRNFHYLLIKDGCRVPAVVFTTLRGRQLCAPPDQPWVERIIQRLQRTSAKMKRRSS
B2 had a Kd of 19 nM.
